The target of the test is T1, His-tagged PD-L1 protein (human, UniProt Q9NZQ7 19-238).
T1 construct: also called His-tagged antigen PD-L1 protein; human PD-L1; not shown: His tag
As to the kind of experiment: SPR, Biacore T200, full-length IgG, 1:1 interaction model. An excerpt: Binding data for each antibody was processed and fitted to 1:1 interaction model using Biacore T200 evaluation software. All experimental data could be well fitted to the model.

T1 sequence (Q9NZQ7 19-238 limits assumed): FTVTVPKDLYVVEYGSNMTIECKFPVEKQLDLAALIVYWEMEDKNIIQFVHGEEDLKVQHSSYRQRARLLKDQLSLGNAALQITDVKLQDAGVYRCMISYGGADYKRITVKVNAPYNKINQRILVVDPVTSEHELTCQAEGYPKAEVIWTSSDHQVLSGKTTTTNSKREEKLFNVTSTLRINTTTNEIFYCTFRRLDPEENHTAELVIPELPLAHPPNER

B1: murine-human chimeric antibody derived from murine PDL1#10 (Chimeric IgG) (antibody, V domains shown)
VH: EVQLQQSGAELVRPGSSVKMSCKTSGYTFTSYSINWVKQRPGQGLEWIAYFYVGNGYTDYNEKFKGKATLTSDTSSSTAYMQLSSLTSEDSAIYFCARGGLPYYFDYWGQGTTLTVSS
VL: DIVMTQSHKFMSTSVGDRVSITCKTSQDVNTAVAWYQQKPGHSPKLLFYWASTRHTGVPDRFTGGGSGTDYTLTISSVQAEDLALYYCQQHYNTPLTFGAGTRLELKR
notes: also called mouse-human chimeric antibody
In turn, B1 came in with a Kd of 1 nM, a koff of 0.000338 s⁻¹ and a kon of 336000 M⁻¹ s⁻¹.

For the origin of these results see US20200190197A1 (REMD BIOTHERAPEUTICS, published 2020).
